Results taken from publication PMC3689916, “Vaspin inhibits kallikrein 7 by serpin mechanism” (Cellular and Molecular Life Sciences: CMLS, 2013).

Molecular target: T1, recombinant human vaspin (visceral adipose tissue-derived serpin; serpinA12), 10×His fusion protein (human, UniProt Q8IW75 22-414)
T1 construct: the crystal structure model covers residues 37-366 and 378-414 (chain A); The natural signal peptide is probably absent from the construct; also called native human vaspin; 10×His–vaspin
T1 sequence: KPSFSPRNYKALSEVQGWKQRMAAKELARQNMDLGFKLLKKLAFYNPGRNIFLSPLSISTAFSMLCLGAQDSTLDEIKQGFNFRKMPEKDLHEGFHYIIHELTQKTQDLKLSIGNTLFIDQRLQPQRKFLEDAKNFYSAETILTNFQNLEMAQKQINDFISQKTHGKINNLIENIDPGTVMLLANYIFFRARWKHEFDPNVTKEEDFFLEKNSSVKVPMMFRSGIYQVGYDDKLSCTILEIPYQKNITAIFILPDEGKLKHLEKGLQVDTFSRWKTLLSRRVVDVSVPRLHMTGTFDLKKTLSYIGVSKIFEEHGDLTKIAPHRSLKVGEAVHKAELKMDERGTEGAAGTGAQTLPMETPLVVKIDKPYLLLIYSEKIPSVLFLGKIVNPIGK
Assay: protease activity assay, association rate under pseudo-first-order conditions (residual activity, fluorogenic peptide substrate); tenfold molar excess of vaspin over hK7; remaining hK7 activity against time; k ass = k obs/[I] from a linear fit of ln activity against time
Conditions: both partners purified

B1: recombinant human kallikrein 7 (hK7) (enzyme, UniProt P49862 23-253, looked up)
chain: IIDGAPCARGSHPWQVALLSGNQLHCGGVLVNERWVLTAAHCKMNEYTVHLGSDTLGDRRAQRIKASKSFRHPGYSTQTHVNDLMLVKLNSQARLSSMVKKVRLPSRCEPPGTTCTVSGWGTTTSPDVTFPSDLMCVDVKLISPQDCTKVYKDLLENSMLCAGIPDSKKNACNGDSGGPLVCRGTLQGLVSWGTFPCGQPNDPGVYTQVCKFTKWINDTMKKHR
notes: source: bought: R&D Systems
kon: 7300 M⁻¹ s⁻¹
